Laboratory results published in US20240042006A1 (KOREA UNIVERSITY RESEARCH AND BUSINESS FOUNDATION SEJONG …, published 2024).

B1: PCNA2dm (other)
chain: MGSSHHHHHHSSGLVPRGSHMMKAKVIDAVSFSYILRTVGDFLSEANFIVTKEGIRVSGIDPSRVVFLDIFLPSSYFEGFEVSQEKEIIGFKLEDVNDILKRVLKDDTLILSSNESKLTLTFDGEFTRSFELPLIQVESTQPPSVNLEFPFKAQLLTITFADIIDELSDLGEVLNIHSKENKLYFEVIGDLVTVKVELSTDNGTLLEASGADVSSSYGMEYVANTTKMRRASDSMELYFGSQIPLKLRFKLPQEGYGDFYIAPRAD
notes: also called second scaffold fragment 210; PCNA2 S172V/A174V mutant subunit
B4: PCNA2 (other, Sulfolobus solfataricus, UniProt Q97Z84 1-245, looked up)
chain: MKAKVIDAVSFSYILRTVGDFLSEANFIVTKEGIRVSGIDPSRVVFLDIFLPSSYFEGFEVSQEKEIIGFKLEDVNDILKRVLKDDTLILSSNESKLTLTFDGEFTRSFELPLIQVESTQPPSVNLEFPFKAQLLTITFADIIDELSDLGEVLNIHSKENKLYFEVIGDLSTAKVELSTDNGTLLEASGADVSSSYGMEYVANTTKMRRASDSMELYFGSQIPLKLRFKLPQEGYGDFYIAPRAD
notes: also called PCNA2 wild-type subunit

Experiments:
Assay in all cases: BLI (BLItz, ForteBio); the partner on the sensor is not stated
PCNA3dm = target: T1, PCNA3dm (Sulfolobus solfataricus)
T1 construct: also called third scaffold fragment 310; PCNA3 Y73F/S170V mutant subunit
T1 chain: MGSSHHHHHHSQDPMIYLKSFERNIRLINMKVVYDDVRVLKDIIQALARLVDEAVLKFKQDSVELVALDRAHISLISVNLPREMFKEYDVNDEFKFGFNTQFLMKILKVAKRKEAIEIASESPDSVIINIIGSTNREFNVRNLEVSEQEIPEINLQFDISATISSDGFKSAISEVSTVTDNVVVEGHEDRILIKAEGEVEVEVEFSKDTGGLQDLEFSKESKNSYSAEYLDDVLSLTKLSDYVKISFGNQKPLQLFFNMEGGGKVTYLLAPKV

PCNA2dm = target: B1
PCNA2 = target: B4
PCNA1 = target: T2, PCNA1 (Sulfolobus solfataricus, UniProt P57766 1-249)
T2 construct: also called PCNA1 wild-type subunit
T2 sequence (looked up): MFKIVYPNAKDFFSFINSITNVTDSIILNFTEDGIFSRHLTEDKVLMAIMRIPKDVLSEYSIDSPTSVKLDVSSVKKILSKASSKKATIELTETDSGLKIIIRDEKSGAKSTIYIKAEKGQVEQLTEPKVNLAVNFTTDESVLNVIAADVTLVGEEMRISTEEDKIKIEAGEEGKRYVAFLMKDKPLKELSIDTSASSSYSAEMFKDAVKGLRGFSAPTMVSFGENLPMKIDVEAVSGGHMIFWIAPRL

Question: For B1, which Kd (PCNA3dm) is on record?
Answer: 571 nM

B2: PCNA1dm (other)
chain: MFKIVYPNAKDFFSFINSITNVTDSIILNFTEDGIFSRHLTEDKVLMAIMRIPKDVLSEYSIDSPTSVKLDVSSVKKILSKASSKKATIELTETDSGLKIIIRDEKSGAKSKIKIKAEKGQVEQLTEPKVNLAVNFTTDESVLNVIAADVTLVGEEMRISTEEDKIKIEAGEEGKRYVAFLMKDKPLKELSIDTSASSSYSAEMFKDAVKGLRGFSAPTMVSFGENLPMKIDVEAVSGGHMIFWIAPRL
notes: also called first scaffold fragment 110; PCNA1 T112K/Y114K mutant subunit
Question: With B2 as the binder, how does the Kd (PCNA2dm) read?
Answer: 2.65 nM

B3: PCNA3 (other, Sulfolobus solfataricus, UniProt P57765 1-244, looked up)
chain: MKVVYDDVRVLKDIIQALARLVDEAVLKFKQDSVELVALDRAHISLISVNLPREMFKEYDVNDEFKFGFNTQYLMKILKVAKRKEAIEIASESPDSVIINIIGSTNREFNVRNLEVSEQEIPEINLQFDISATISSDGFKSAISEVSTVTDNVVVEGHEDRILIKAEGESEVEVEFSKDTGGLQDLEFSKESKNSYSAEYLDDVLSLTKLSDYVKISFGNQKPLQLFFNMEGGGKVTYLLAPKV
notes: also called PCNA3 wild-type subunit
Question: Which Kd (PCNA2) does the source give for B3 here?
Answer: 3170 nM

Question: For B4, which Kd (PCNA1) is on record?
Answer: 6.31 nM
